Reference: publication PMC5552909, “The first description of a hormone‐sensitive lipase from a basidiomycete: Structural insights and biochemical characterization revealed Bjerkandera adusta BaEstB as a novel esterase” (MicrobiologyOpen, 2017)

B1: BaEstB (Bjerkandera adusta) (protein)
chain: MESIRLSNAAGTISNDILAQVTFANEAIYPLLEKRRAEIENVTRKTFRYGALPGSEMDVYYPSSTPSGKAPVLAFVHGGAYVHGSKTHPPPGDLIYKNVGAFYASQGFVTVIPDYRKLPGMKWPDAPSDIASALTFLVAHSSDVNASAPTAADVQNIFLVGHSAGGAIASDVLLAPGLLPANVRRSVRGLIVFGGMMHYRGLEYPIPPFVLPGYYGTDEDVRAHEPLGLLESASDEIVRGLPDVLMVLSEHDVAAMRAAVTDFRSALAERTGKDVPLLVAQGHNHISPHYALSSGEGEEWGHDVIRWMRAKLASGNGVPATE
notes: full-length ORF (969 nt, M1-E322) in pPICZalphaA with myc and poly-His tags; secreted from Pichia pastoris X-33; dimer by DLS; catalytic triad S163, D252, H285

What was measured:
[1] = biological target: Bjerkandera adusta BaEstB, Hormone-Sensitive Lipase (HSL) family esterase (Bjerkandera adusta); test: dynamic light scattering (DLS); purified BaEstB without substrate; 30°C; Malvern Zetasizer Nano ZSP; 12 scans of 10 s; hydrodynamic radius from the Stokes-Einstein equation assuming spherical geometry
[2] = biological target: Bjerkandera adusta BaEstB, Hormone-Sensitive Lipase (HSL) family esterase (Bjerkandera adusta); test: dynamic light scattering (DLS); purified BaEstB in presence of the substrate 2-naphthyl acetate; same conditions, considering its optimum pH and temperature; 12 scans of 10 s
[3] = substrate: CC(=O)Oc1ccc2ccccc2c1; test: isothermal titration calorimetry, single injection, Michaelis-Menten fit; format: biochemical, Bjerkandera adusta; conditions: 30°C in methods, results state optimum pH and temperature (pH 7.0; 45°C)

Row | Molecule | stoichiometry N [1] | stoichiometry N [2] | Km [3] [µM] | kcat [3]
1 | Bjerkandera adusta BaEstB, Hormone-Sensitive Lipase (HSL) family esterase (enzyme) | 2 | 2 | – | –
2 | B1 | – | – | 7.68 ± 0.62 | 5.31 × 10^3 ± 20 s^−1
